The results in this text go back to paper PMC6978347, “Structural basis of p62/SQSTM1 helical filaments and their role in cellular cargo uptake” (Nature Communications, 2020).

For one series, the target named is T1, MEKK3^43–127 (MEKK3–PB1) (UniProt Q99759 43-127).
T1 construct: MEKK3, residues 43-127 (PB1 domain); The His6 tag was kept for the gold-labelling and co-pelletation experiments; source: E. coli BL21 (DE3), expressed from pETM11, purified; not shown: His6, N-terminal, kept
T1 sequence (looked up): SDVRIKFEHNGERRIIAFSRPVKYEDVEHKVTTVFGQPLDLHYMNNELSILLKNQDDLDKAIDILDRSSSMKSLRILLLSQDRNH
Kind of series: not stated; binding of NBR1–PB1 to MEKK3 'also measured'; method not given. As to conditions: both partners purified.

Series [1] deals with the molecule itself. Nature of the series: co-sedimentation; co-pelleting assay: p62-PB1^1–122 with His6-tagged PB1 partner, 1 h on ice, 49,000 g, 4 °C, 30 min; pellet and supernatant on SDS-PAGE, Coomassie.
Series [2] deals with the molecule itself. Nature of the series: co-sedimentation; sedimentation (pelletation) assay of single purified PB1 domains by ultracentrifugation; soluble and pellet fractions on SDS-PAGE.
In series [3] the target is T2, MBP-tagged wild-type AtNBR1–PB1^1–94 (Arabidopsis thaliana, UniProt Q9SB64 1-94).
T2 construct: NBR1 autophagy receptor, Arabidopsis thaliana (AtNBR1), residues 1-94 (PB1 domain); Held on amylose resin in the pull-down; also called MBP–AtNBR1–PB1; source: E. coli BL21 (DE3), expressed as described for AtNBR1–PB1, buffer-exchanged; not shown: MBP, N-terminal, kept
T2 sequence (looked up): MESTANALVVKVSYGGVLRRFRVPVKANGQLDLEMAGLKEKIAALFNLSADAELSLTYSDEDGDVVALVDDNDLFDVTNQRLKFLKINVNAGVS
Kind of series: pull-down; MBP–AtNBR1–PB1 on amylose resin, 4:1 molar excess of AtNBR1–PB1 (mutant); wash 15 mM HEPES pH 7.5, 500 mM NaCl; eluted with 30 mM maltose; SDS-PAGE. As to conditions: both partners purified.

As usually defined, the Kd is the concentration at which binding is half-saturated. Low readings indicate a tighter complex, high ones a looser complex.

B1: NBR1^1–85 (human NBR1–PB1) (domain or fragment, UniProt Q14596 1-85, looked up)
chain: MEPQVTLNVTFKNEIQSFLVSDPENTTWADIEAMVKVSFDLNTIQIKYLDEENEEVSINSQGEYEEALKMAVKQGNQLQMQVHEG
notes: NBR1, human, residues 1-85 (PB1 domain); The His6 tag was kept for the gold-labelling and co-pelletation experiments; also called HsNBR1^1–85; wild-type NBR1; source: E. coli BL21 (DE3), expressed from pETM11, purified; not shown: His6, N-terminal, kept
Consider B1, for which the Kd with MEKK3^43–127 (MEKK3–PB1) stood at 13.3 µM.

B2: p62-PB1^1–122 (p62/SQSTM1 residues 1–122) (domain or fragment, human, UniProt Q13501 1-122, looked up)
chain: MASLTVKAYLLGKEDAAREIRRFSFCCSPEPEAEAEAAAGPGPCERLLSRVAALFPALRPGGFQAHYRDEDGDLVAFSSDEELTMAMSYVKDDIFRIYIKEKKECRRDHRPPCAQEAPRNMV
notes: Forms helical filaments; also called p62-PB1 filaments; source: E. coli BL21 (DE3), purified (Ni-NTA, 3C protease cleavage, Talon resin); not shown: His6, N-terminal, cleaved; MBP, N-terminal, cleaved
As to B2, in series [1], the binding result is listed as “binds”.

B3: AtNBR1^1–94 (AtNBR1–PB1) (domain or fragment, Arabidopsis thaliana, UniProt Q9SB64 1-94, looked up)
chain: MESTANALVVKVSYGGVLRRFRVPVKANGQLDLEMAGLKEKIAALFNLSADAELSLTYSDEDGDVVALVDDNDLFDVTNQRLKFLKINVNAGVS
notes: NBR1 autophagy receptor, Arabidopsis thaliana (AtNBR1), residues 1-94 (PB1 domain); Forms helical filaments; also called AtNBR1–PB1^1–94; NBR1^1–94 from Arabidopsis thaliana; source: E. coli BL21 (DE3), purified (Ni-NTA, 3C protease cleavage, Talon resin); not shown: His6, N-terminal, cleaved; MBP, N-terminal, cleaved
On to B3, for which the binding result in series [2] and in series [3] was “binds” throughout.

B4: TFG1^1–95 (Trk-fused gene 1, TFG1–PB1) (domain or fragment, human, UniProt Q92734 1-95, looked up)
chain: MNGQLDLSGKLIIKAQLGEDIRRIPIHNEDITYDELVLMMQRVFRGKLLSNDEVTIKYKDEDGDLITIFDSSDLSFAIQCSRILKLTLFVNGQPR
notes: TFG1 (Trk-fused gene 1), human, residues 1-95 (PB1 domain); source: E. coli BL21 (DE3), purified (Ni-NTA, 3C protease cleavage, Talon resin); not shown: His6, N-terminal, cleaved; MBP, N-terminal, cleaved
On to B4, for which the binding result in series [2] was “binds”.

B5: p62^1–102 (domain or fragment, human, UniProt Q13501 1-102, looked up)
chain: MASLTVKAYLLGKEDAAREIRRFSFCCSPEPEAEAEAAAGPGPCERLLSRVAALFPALRPGGFQAHYRDEDGDLVAFSSDEELTMAMSYVKDDIFRIYIKEK
notes: p62/SQSTM1, human, residues 1-102 (PB1 domain); also called p62 PB1 domain 1–102; source: expressed and purified
On to B5, for which the binding result in series [2] was “binds”.
